# Experimental data: paper PMC5428420, “The trimer interface in the quaternary structure of the bifunctional prokaryotic FAD synthetase from Corynebacterium ammoniagenes” (Scientific Reports, 2017)
# Read-outs that look alike come from different tables or passages of the source.
# B1: WT: wild-type bifunctional FAD synthetase from Corynebacterium ammoniagenes (CaFADS) (protein)
# chain: MDIWYGTAAVPKDLDNSAVTIGVFDGVHRGHQKLINATVEKAREVGAKAIMVTFDPHPVSVFLPRRAPLGITTLAERFALAESFGIDGVLVIDFTRELSGTSPEKYVEFLLEDTLHASHVVVGANFTFGENAAGTADSLRQICQSRLTVDVIDLLDDEGVRISSTTVREFLSEGDVARANWALGRHFYVTGPVVRGAGRGGKELGFPTANQYFHDTVALPADGVYAGWLTILPTEAPVSGNMEPEVAYAAAISVGTNPTFGDEQRSVESFVLDRDADLYGHDVKVEFVDHVRAMEKFDSVEQLLEVMAKDVQKTRTLLAQDVQAHKMAPETYFLQAES
# Legend:
# [1] = biological target: T1, CaFADS (Corynebacterium ammoniagenes, UniProt Q59263); set-up: made in house; host or cells: E. coli BL21(DE3); conditions: ITC, ref [16], [21], cited from earlier work
# [2] = system: CaFADS RFK activity; conditions: 25 °C
# Method: The CaFADS RFK activity was measured at 25 °C in 500 µl of 20 mM PIPES, 0.8 mM MgCl2, pH 7.0, containing 0.5–45 µM RF and 10–500 µM ATP. Reactions were initiated by addition of ~20 nM of the monomeric enzyme. After 1 min incubation at 25 °C, the reactions were stopped by boiling the mixtures for 5 min. The flavin composition in the supernatant was determined using an Alliance HPLC system (Waters), equipped with a 2707 autosampler and an HSST3 column (4.6 × 150 mm, 3.5 µm, Waters), preceded by a precolumn (4.6 × 20 mm, 3.5 µm, Waters). Flavins (FMN or FAD) produced from RF were quantified using their corresponding standard curves, as previously described[21].
# When an excess of RF inhibited the RFK activity, the experimental data were interpreted through a model describing the substrate inhibition of a bi-substrate mechanism[26]. In these situations, the errors in apparent K m and k cat (^app K m and ^app k cat) increased as the inhibition constant (K i) approached K m ^S. Experiments were performed in triplicate.
# [3] = biological target: CaFADS FMNAT activity (Corynebacterium ammoniagenes, UniProt Q59263); assay: Steady-state kinetics of the FMNAT activity (FMN → FAD), continuous fluorometric assay; assay type: biochemical; conditions: 25 °C, 20 mM PIPES pH 7.0, 10 mM MgCl2
# Method: The CaFADS FMNAT activity was fluorometrically measured using a continuous assay. […] A Cary Eclipse spectrophotofluorometer with excitation and emission wavelengths of 420 nm and 530 nm, respectively, was used. FAD and FMN fluorescence were individually calibrated using standard solutions and the data were analyzed as previously described.
# [4] = biological target: T2, CaFADS:ADP:Mg^2+ complex (Corynebacterium ammoniagenes, UniProt Q59263); conditions: FMN binding to preformed CaFADS:ADP:Mg2+ complex; ITC, 25 °C, pH 7.0, 10 mM MgCl2; ref [16], [21]; read-out: K d FADS:ADP:FMN, RFK site; cited from earlier work
# T2 construct: made in house; host or cells: E. coli BL21(DE3)
# [5] = biological target: T1, CaFADS; set-up: made in house; host or cells: E. coli BL21(DE3); conditions: ITC, ref [16], [21], cited from earlier work; remark: listed apart in the source
# [6] = biological target: T1, CaFADS; set-up: made in house; host or cells: E. coli BL21(DE3); conditions: ITC, ref [16], [21], cited from earlier work; remark: listed apart in the source
# [7] = biological target: T1, CaFADS; conditions: ITC; in brackets; ref [16], [21]; cited from earlier work
# [8] = RF concentration giving ~80% of maximal activity, pH 7.0, 0.8 mM MgCl2
molecule,measurement,setting,value
B1,Kd,"[1]; 25 °C, pH 7.0, 10 mM MgCl2, read-out: K d FADS:FAD",0.74 µM
same,stoichiometry FADS:FAD,[1]; in brackets,1
same,K m ATP RFK activity,[2]; [8],28.2 ± 3.9 µM
same,k cat RFK activity as function of ATP,[2]; [8],2.58 ± 0.083 s⁻¹
same,k cat/K m ATP RFK activity,[2]; [8],91700 ± 13000 M⁻¹ s⁻¹
same,k cat (apparent) RFK activity,"[2]; saturating ATP, apparent constant (RF substrate inhibition), 20 mM PIPES pH 7.0, 0.8 mM MgCl2",6.8 ± 3.83 s⁻¹
same,K m RF (apparent) RFK activity,"[2]; saturating ATP, apparent constant, 20 mM PIPES pH 7.0, 0.8 mM MgCl2",11.7 ± 3.0 µM
same,k cat/K m RF RFK activity,"[2]; saturating ATP, apparent, pH 7.0, 0.8 mM MgCl2",582000 ± 360000 M⁻¹ s⁻¹
same,K m ATP FMNAT activity,[3],22.4 ± 2.0 µM
same,K m FMN FMNAT activity,[3],10.1 ± 1.0 µM
same,k cat FMNAT activity,[3],0.0917 ± 0.0083 s⁻¹
same,k cat/K m ATP FMNAT activity,[3],4170 ± 500 M⁻¹ s⁻¹
same,k cat/K m FMN FMNAT activity,[3],9000 ± 1200 M⁻¹ s⁻¹
same,Kd,[4],0.9 ± 0.1 µM
same,Kd,"[5]; 25 °C, pH 7.0, 10 mM MgCl2, average K d,av of two sites, read-out: K d FADS:ATP",30.2 µM
same,stoichiometry FADS:ATP,[5]; in brackets,2
same,Kd,"[6]; 25 °C, pH 7.0, 10 mM MgCl2, read-out: K d FADS:FMN",7.8 µM
same,stoichiometry FADS:FMN,[6]; in brackets,1
same,stoichiometry FADS:RF,[7],2
